The source of these data is patent US20080050370A1 (Biogen, published 2008).

B1: BHA10 Fab (Fab, V domains shown)
VH: QVQLVQSGAEVKKPGSSVKVSCKASGYTFTTYYLHWVRQAPGQGLEWMGWIYPGNVHAQYNEKFKGRVTITADKSTSTAYMELSSLRSEDTAVYYCARSWEGFPYWGQGTTVTVSS
VL: DIQMTQSPSSLSASVGDRVTITCKASQNVGINVAWYQQKPGKAPKSLISSASYRYSGVPSRFSGSGSGTDFTLTISSLQPEDFATYFCQQYDTYPFTFGQGTKVEIK
notes: Made by enzymatic cleavage of BHA10 IgG1; also called BHA10 Fab (CHO)
B2: BHA10 (Gly4Ser)4 scFv (scFv)
scFv: QVQLVQSGAEVKKPGSSVKVSCKASGYTFTTYYLHWVRQAPGQGLEWMGWIYPGNVHAQYNEKFKGRVTITADKSTSTAYMELSSLRSEDTAVYYCARSWEGFPYWGQGTTVTVSSGGGGSGGGGSGGGGSGGGGSDIQMTQSPSSLSASVGDRVTITCKASQNVGINVAWYQQKPGKAPKSLISSASYRYSGVPSRFSGSGSGTDFTLTISSLQPEDFATYFCQQYDTYPFTFGQGTKVEIK
notes: His-tagged (captured through anti-PENTA-His); also called Wild-type, (G4S)*4 linker; GS4
B3: BHA10 VH44:VL100/(Gly4Ser)4 scFv (scFv)
scFv: B2 scFv with G44C, Q236C
notes: Cys at Kabat VH44 and VL100 form a disulfide; also called Wild-type, (G4S)*4 linker w/ VH44/VL100 disulfide; 009 (ss)
B4: conventional BHA10 scFv, VH-(Gly4Ser)3-VL (scFv)
scFv: QVQLVQSGAEVKKPGSSVKVSCKASGYTFTTYYLHWVRQAPGQGLEWMGWIYPGNVHAQYNEKFKGRVTITADKSTSTAYMELSSLRSEDTAVYYCARSWEGFPYWGQGTTVTVSSGGGGSGGGGSGGGGSDIQMTQSPSSLSASVGDRVTITCKASQNVGINVAWYQQKPGKAPKSLISSASYRYSGVPSRFSGSGSGTDFTLTISSLQPEDFATYFCQQYDTYPFTFGQGTKVEIK
notes: also called Wild-type, (G4S)*3 linker; WT
B5: BHA10 VH44/VL100 scFv (scFv)
scFv, VH-(Gly4Ser)3-VL: B4 scFv with G44C, Q231C
modifications: disulfide bond between VH44 Cys and VL100 Cys (Kabat)
notes: Expressed in E. coli; also called IEH006 (GS3 + SS); pIEH006
B6: BHA10 scFv VH44:VL100 NH-Hercules bispecific antibody (bispecific antibody)
heavy: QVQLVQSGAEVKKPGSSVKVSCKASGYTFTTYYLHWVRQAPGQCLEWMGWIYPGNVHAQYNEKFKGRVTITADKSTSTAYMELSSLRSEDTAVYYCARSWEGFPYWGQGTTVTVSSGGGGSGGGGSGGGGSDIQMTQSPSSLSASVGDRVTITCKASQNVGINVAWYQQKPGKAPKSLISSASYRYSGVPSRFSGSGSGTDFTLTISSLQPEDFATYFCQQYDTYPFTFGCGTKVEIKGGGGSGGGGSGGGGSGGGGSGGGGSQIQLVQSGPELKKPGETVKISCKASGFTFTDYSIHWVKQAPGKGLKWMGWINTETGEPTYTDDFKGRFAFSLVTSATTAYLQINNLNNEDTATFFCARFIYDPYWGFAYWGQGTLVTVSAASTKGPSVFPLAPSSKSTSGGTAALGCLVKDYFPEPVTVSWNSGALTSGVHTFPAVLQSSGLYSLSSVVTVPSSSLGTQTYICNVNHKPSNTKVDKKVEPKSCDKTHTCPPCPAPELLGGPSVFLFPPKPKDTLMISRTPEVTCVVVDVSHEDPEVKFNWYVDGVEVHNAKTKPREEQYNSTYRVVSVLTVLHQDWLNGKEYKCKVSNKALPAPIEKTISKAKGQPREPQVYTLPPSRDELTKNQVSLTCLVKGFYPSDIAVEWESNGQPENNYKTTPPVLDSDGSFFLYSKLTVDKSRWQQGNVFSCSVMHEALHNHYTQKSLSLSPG
light: QLVLTQSSSVSFSLGASAKLTCTLSSQHSTYTIEWYQQQPLKPPKYVMELKKDGSHSTGDGIPDRFSGSSSGADRYLSISNIQPEDEAIYICGVGDTIKEQFVYVFGGGTKVEIKRTVAAPSVFIFPPSDEQLKSGTASVVCLLNNFYPREAKVQWKVDNALQSGNSQESVTEQDSKDSTYSLSSTLTLSKADYEKHKVYACEVTHQGLSSPVTKSFNRGEC
notes: BHA10 scFv (anti-LTβR) joined by a (Gly4Ser)5 linker to the N-terminus of the chimeric 14A2 IgG1 (anti-TRAIL R2) heavy chain; also called N-Hercules with VH44:VL100 BHA10 scFv; N-"Hercules" Cys
B7: BHA10 scFv VH44:VL100/(Gly4Ser)4 C-Hercules bispecific antibody (bispecific antibody, human IgG1, kappa)
heavy: not shown
light: B6 light
notes: scFv at the C-terminus of the chimeric 14A2 IgG1 heavy chain; For signal peptides see m17; also called XWU036; pXWU036
B8: BHA10 scFv VH44:VL100/(Gly4Ser)4 NH-Hercules bispecific antibody (bispecific antibody, human IgG1, kappa)
heavy: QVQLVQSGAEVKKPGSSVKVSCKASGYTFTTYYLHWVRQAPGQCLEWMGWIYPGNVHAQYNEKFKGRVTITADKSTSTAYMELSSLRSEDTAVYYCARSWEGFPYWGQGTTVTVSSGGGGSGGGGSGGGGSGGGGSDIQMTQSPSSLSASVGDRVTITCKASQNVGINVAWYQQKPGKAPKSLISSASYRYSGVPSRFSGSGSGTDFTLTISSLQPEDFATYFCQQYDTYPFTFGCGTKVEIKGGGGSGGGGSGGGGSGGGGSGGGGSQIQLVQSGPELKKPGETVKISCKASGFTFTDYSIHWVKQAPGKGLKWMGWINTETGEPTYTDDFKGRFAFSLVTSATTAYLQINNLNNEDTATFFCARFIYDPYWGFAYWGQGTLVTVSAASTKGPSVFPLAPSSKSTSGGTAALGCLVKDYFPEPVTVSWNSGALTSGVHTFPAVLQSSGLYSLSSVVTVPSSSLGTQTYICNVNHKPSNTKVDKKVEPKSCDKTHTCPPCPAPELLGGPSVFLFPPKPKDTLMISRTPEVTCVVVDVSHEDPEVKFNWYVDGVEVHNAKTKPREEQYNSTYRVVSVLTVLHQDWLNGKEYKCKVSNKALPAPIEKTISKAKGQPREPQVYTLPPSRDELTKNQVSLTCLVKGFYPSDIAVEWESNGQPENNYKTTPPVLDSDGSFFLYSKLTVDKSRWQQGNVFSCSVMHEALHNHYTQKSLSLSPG
light: B6 light
notes: scFv at the N-terminus of the chimeric 14A2 IgG1 heavy chain; For signal peptides see m17; also called XWU028; pXWU028
B9: BHA10 scFv VH44:VL100 C-Hercules bispecific antibody (bispecific antibody, human IgG1, kappa)
heavy: not shown
light: B6 light
notes: BHA10 scFv joined by a Ser(Gly4Ser)3 linker to the C-terminus of the chimeric 14A2 IgG1 heavy chain; For signal peptides see m17; also called C-Hercules with VH44:VL100 BHA10 scFv; C-"Hercules" Cys
B10: BHA10 scFv VH44/VL100 disulfide, VH-S16E, VL-S46L, (G4S)4 linker (scFv, name in Kabat numbering)
scFv: B2 scFv with S16E, G44C, S182L, Q236C
notes: It is read here as the disulfide version; also called 080 VL-S46L + VH-S16E + ss
B11: BHA10 scFv VL-S46L, (G4S)4 linker (scFv)
scFv: QVQLVQSGAEVKKPGSSVKVSCKASGYTFTTYYLHWVRQAPGQGLEWMGWIYPGNVHAQYNEKFKGRVTITADKSTSTAYMELSSLRSEDTAVYYCARSWEGFPYWGQGTTVTVSSGGGGSGGGGSGGGGSGGGGSDIQMTQSPSSLSASVGDRVTITCKASQNVGINVAWYQQKPGKAPKLLISSASYRYSGVPSRFSGSGSGTDFTLTISSLQPEDFATYFCQQYDTYPFTFGQGTKVEIKDDDDKSFLEQKLISEEDLNSAVDHHHHHH
notes: also called 072 VL-S46L; pIEH029
B12: BHA10 scFv VH-V55G, (G4S)4 linker (scFv)
scFv: B11 scFv with V56G, L182S
notes: also called 079 VH-V55G; pIEH070
B13: BHA10 scFv VH-P101D, (G4S)4 linker (scFv, name in Kabat numbering)
scFv: B2 scFv with P104D
notes: Built on the (G4S)4 scFv; The position is a Kabat number of VH; also called 077 VH-P101D; pIEH058
B14: BHA10 scFv VH-S16Q, VL-S46L, (G4S)4 linker, no disulfide (scFv, name in Kabat numbering)
scFv: B2 scFv with S16Q, S182L
notes: Positions are Kabat numbers of the VH and VL domains; also called 078 VL-S46L + VH-S16Q; pIEH078
B15: BHA10 scFv VH-S16E, VL-S46L, (G4S)4 linker, no disulfide (scFv, name in Kabat numbering)
scFv: B2 scFv with S16E, S182L
notes: Positions are Kabat numbers of the VH and VL domains, not of the scFv entry; also called 076 VL-S46L + VH-S16E; pIEH076
B16: BHA10 scFv VH-S16E, VH-V55G, VL-S46L, (G4S)4 linker (scFv, name in Kabat numbering)
scFv: B2 scFv with S16E, V56G, S182L
notes: Positions are Kabat numbers of the VH and VL domains; also called 087 VL-S46L + VH-S16E, V55G; pIEH087
B17: BHA10 scFv VH-S16E, (G4S)4 linker (scFv, name in Kabat numbering)
scFv: B2 scFv with S16E
notes: Positions are Kabat numbers of the VH domain; also called 074 VH-S16E; pIEH032
B18: IEH031 (GS4 + SS + VL S46L) (scFv)
scFv: B11 scFv with G44C, Q236C
modifications: chain 1: engineered disulfide bond between Cys at pos 44 (VH Kabat 44) and Cys at pos 236 (VL Kabat 100)
notes: also called pIEH031; BHA10 scFv VH44-VL100 disulfide, (Gly4Ser)4 linker, VL S46L
B19: BHA10 scFv VH44/VL100 disulfide, VH-S16Q, VL-S46L, (G4S)4 linker (scFv, name in Kabat numbering)
scFv: B2 scFv with S16Q, G44C, S182L, Q236C
notes: It is read here as the disulfide version; also called pIEH081

Numbering of substitutions follows the chain as printed. Names and notes keep the numbering of the source.

The target of one test is T1, LTβR-Ig (UniProt P36941 31-227, limits assumed).
T1 construct: extracellular domain; also called LTβR Ig receptor; recombinantly produced LTβR receptor; not shown: human Fc region
T1 sequence (P36941 31-227 limits assumed): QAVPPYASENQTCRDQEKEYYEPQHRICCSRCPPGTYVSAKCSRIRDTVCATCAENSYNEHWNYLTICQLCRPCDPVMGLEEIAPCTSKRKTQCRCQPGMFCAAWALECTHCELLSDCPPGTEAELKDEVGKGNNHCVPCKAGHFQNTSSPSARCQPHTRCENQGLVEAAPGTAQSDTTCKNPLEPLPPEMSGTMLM
The test can be described thus: thermal challenge assay; T50 = temperature at which 50% of the molecules keep binding to plate-coated LTβR-Ig (DELFIA); unit taken from the x axis.
B1 yielded a T50 of 62 °C.

Molecule B2 showed a T50 of 53 °C.

Regarding B3, the T50 is 62 °C.

Take B4: the T50 stood at 49 °C.

With B5, the T50 was 59 °C.

A further test has as its target T1, LTβR-Ig. The test can be described thus: bispecific sandwich ELISA: LTβR-Ig coated on the plate, purified antibody titrated, then TRAIL-R2 Fc 6X-His, detection with anti-His HRP conjugate; signal needs binding to both receptors.
Description: In the next step, 100 μl individual ‘Hercules’ supernatant or purified protein in dilution buffer was added to duplicate wells and incubated for 1 h at 37° C. After washing with tap water, 100 μl of 100 ng/ml TRAIL-R2 Fc 6X-His tagged fusion protein (R&D Systems, Minneapolis, Minn.) was added to the wells and incubated for 1 h at 37° C. […] After washing, 100 μl/well of a HRPO Substrate combined TMB Peroxidase Substrate/Peroxidase Solution B (Kirdgaard and Perry Labs, Cat. 50-76-00) was added. The reaction was stopped with 100 μl of 2M H₂SO₄ after 5 to 10 min. The OD was measured at 450 nm and 540 nm using a Molecular Devices plate reader and binding curves were generated.
Purified versions of the stabilized Hercules constructs were then tested for bispecific binding activity to recombinantly produced TRAIL-R2 and LTβR receptors in an ELISA assay. In this assay LTβR Ig receptor was immobilized onto plates and test samples were then incubated to permit binding to receptor. Unbound samples were removed by washing followed by a second incubation step with TRAIL R2-(His)₆. Following a wash step, doubly-bound complexes were detected with a labeled anti-(His)₆ antibody.
B6 had an EC50 of 0.041 µg/mL.

As to B7, the EC50 was found to be 0.086 µg/mL.

Turning to B8, the response was half-maximal at 0.055 µg/mL (EC50).

B9 displayed an EC50 of 0.087 µg/mL.

For another test, the target named is T2, sLTβR (UniProt P36941 31-227, limits assumed).
T2 construct: Used in solution in ITC and as the analyte in SPR; also called soluble lymphotoxin beta receptor; antigen
T2 sequence (P36941 31-227 limits assumed): as above
Put plainly: SPR (Biacore 3000); with VH44/VL100 disulfide (second 'VH-S16E, VL-S46L' row, below the disulfide wild-type). A general note: Surface plasmon resonance follows binding to a sensor surface in real time, without labels.
Molecule B10 had a Kd of 4 nM.

The next test addresses T2, sLTβR. The test can be described thus: SPR (Biacore 3000).
As to B11, the affinity, expressed as Kd, was 4 nM.

With B12, the Kd was found to be 2.2 nM.

Molecule B2 registered a dissociation constant Kd of 2.1 nM.

The molecule B13 displayed a Kd of 5.2 nM.

Molecule B14 returned a Kd of 4.2 nM.

On to B15, for which binding was characterised by a dissociation constant (Kd) of 3.4 nM.

On to B3, for which binding was put at a Kd of 3.3 nM.

B16: the Kd worked out at 3.8 nM.

In turn, B17 yielded a Kd of 2 nM.

B4 came in with a Kd of 2.7 nM.

The target of a further test is T1, LTβR-Ig. The test can be described thus: thermal challenge assay, remaining binding to plate-coated LTβR-Ig read by DELFIA; unit taken from the x axis.
For B11, the “midpoint temperature of the thermal challenge curve (T50)” value (from here on “midpoint temperature”) was found to be 60.3 °C.

As for B18, the “midpoint temperature” value came out at 72.3 °C.

In the case of B3, the “midpoint temperature” value was found to be 63.3 °C.

For the molecule B5, the “midpoint temperature” value is 61.5 °C.

Another test addresses T2, sLTβR. The test can be described thus: SPR (Biacore 3000), scFv captured on anti-PENTA-His, sLTβR as analyte, 1:1 Langmuir fit.
Description: (§1) All experiments were performed in HBS-EP buffer, pH 7.4. […] 0.1 μM solutions of test scFvs were injected over the chip at a flow rate of 5 μl/min for 10 minutes and captured onto the surface via the immobilized PENTA-His antibody. To investigate binding between sLTβR and captured scFv, a concentration series of sLTβR (1, 2, 5, 10, 25, 50, 100, and 200 nM) was double injected at a flow rate of 30 μl/min onto the scFv-coated surface. Background was subtracted from test sample sensorgrams using sensorgram data from a flow cell containing buffer only and sensorgram data from the PENTA-His surface where scFv was injected followed by an injection of buffer instead of sLTβR. The curves were analyzed using the BiaEval 3.0 manufacturer's software. KD values were calculated by fitting kinetic association and dissociation curves to a 1:1 Langmuir binding model. Chip surfaces were regenerated by two consecutive 10 μL injections of 0.1 M glycine, pH 3.0.
For the molecule B2, binding was put at a Kd of 2.5 nM.

B3 displayed a dissociation constant Kd of 4.3 nM.

The target of another test is T2, sLTβR. Put plainly: isothermal titration calorimetry at 30 °C, Fab titrated into sLTβR in PBS.
Description: The Fab and sLTβR were concentrated to 6.0 and 2.0 mg/mL, respectively, using Amicon ultracentrifugal filter devices (MWCO 10,000). The concentrated stock solutions were simultaneously dialyzed against PBS prior to the ITC measurements. ITC was performed on a VP-ITC unit (MicroCal LLC, Northampton, Mass.) set to 30° C. Approximately 500 μL of a 7 μM sLTβR solution was placed into the sample cell and PBS dialysate was placed in the reference cell. […] ITC curves were analysed using the Origin Software supplied by the manufacturer.
The molecule B1 yielded a Kd of 1.9 nM.

The target in a further test is T2, sLTβR. Put plainly: SPR (Biacore 3000), scFv captured on anti-PENTA-His, sLTβR 1-200 nM as analyte, 1:1 Langmuir fit.
Description: as §1
Molecule B4 showed a Kd of 3.7 nM.

The next test concerns the target T2, sLTβR. Put plainly: SPR (Biacore 3000); with VH44/VL100 disulfide (second 'VH-S16Q, VL-S46L' row, below the disulfide wild-type).
B19 yielded a Kd of 3.3 nM.

The EC50 is the concentration needed to bring the measured effect to its halfway point. In general, Kd refers to the equilibrium constant for the complex coming apart. The low end stands for higher affinity, the high end for lower affinity.
